From US20180291110A1 (Hoffmann-La Roche, published 2018)

These binders were tested against T1, human transferrin receptor (recombinant, for surface plasmon resonance) (human, UniProt P02786 89-760) (assay: SPR 25C).
T1 construct: also called huTfR; human transferrin receptor-biotinylated
T1 sequence (P02786 89-760 limits assumed): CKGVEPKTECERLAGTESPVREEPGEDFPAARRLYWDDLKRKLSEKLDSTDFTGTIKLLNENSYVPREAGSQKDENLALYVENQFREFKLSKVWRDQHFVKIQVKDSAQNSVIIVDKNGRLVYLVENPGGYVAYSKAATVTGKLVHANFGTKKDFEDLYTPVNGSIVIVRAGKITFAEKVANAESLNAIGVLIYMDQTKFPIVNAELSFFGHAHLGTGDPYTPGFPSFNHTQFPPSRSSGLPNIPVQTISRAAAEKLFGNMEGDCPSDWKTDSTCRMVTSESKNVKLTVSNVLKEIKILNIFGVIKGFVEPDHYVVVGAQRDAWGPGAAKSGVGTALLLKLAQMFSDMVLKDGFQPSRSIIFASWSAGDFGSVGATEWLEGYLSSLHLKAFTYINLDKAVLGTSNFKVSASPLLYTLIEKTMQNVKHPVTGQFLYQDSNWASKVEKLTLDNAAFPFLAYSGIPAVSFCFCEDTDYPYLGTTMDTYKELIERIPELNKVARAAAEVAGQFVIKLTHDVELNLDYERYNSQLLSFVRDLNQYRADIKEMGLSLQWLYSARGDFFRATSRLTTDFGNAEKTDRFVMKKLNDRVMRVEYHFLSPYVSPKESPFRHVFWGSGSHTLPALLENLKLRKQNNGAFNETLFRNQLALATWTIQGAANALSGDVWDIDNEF

Row | koff [s⁻¹] | Binder
1 | 0.00758 | 2/99 VH18/VL15 (antibody, V domains shown) VH: QVQLQESGPGLVKPSQTLSLTCTVSGFSLSSYAMSWIRQHPGKGLEWIGYIWSGGSTDYAPSLKSRVTISVDTSKNQFSLKLSSVTAADTAVYYCARRYGTSYPDYGDANGFDPWGQGTLVTVSS VL: DIVMTQSPDSLAVSLGERATINCKSSQSISSYLIWYQQKPGQPPKLLIYRASTLASGVPDRFSGSGSGTDFTLTISSLQAEDVAVYYCQQAYSSSNVDNTFGGGTKVEIK
2 | 0.001 | 2/99 VH19/VL15 (antibody, V domains shown) VH: QSMQESGPGLVKPSQTLSLTCTVSGFSLSSYAMSWIRQHPGKGLEWIGYIWSGGSTDYAPSLKSRVTISVDTSKNQFSLKLSSVTAADTAVYYCARRYGTSYPDYGDANGFDPWGQGTLVTVSS VL: DIVMTQSPDSLAVSLGERATINCKSSQSISSYLIWYQQKPGQPPKLLIYRASTLASGVPDRFSGSGSGTDFTLTISSLQAEDVAVYYCQQAYSSSNVDNTFGGGTKVEIK
3 | 0.00156 | 2/99 VH17/VL15 (antibody, V domains shown) VH: QQLQESGPGLVKPSETLSLTCTVSGFSLSSYAMSWVRQPPGKGLEWIGYIWSGGSTDYNPSLKSRVTISKDTSKNQVSLKLSSVTAADTAVYYCARRYGTSYPDYGDANGFDPWGPGTLVTVSS VL: DIVMTQSPDSLAVSLGERATINCKSSQSISSYLIWYQQKPGQPPKLLIYRASTLASGVPDRFSGSGSGTDFTLTISSLQAEDVAVYYCQQAYSSSNVDNTFGGGTKVEIK
4 | 0.00477 | 2/99 VH16/VL15 (antibody, V domains shown) VH: QQLQESGPGLVKPSETLSLTCTVSGFSLSSYAMSWVRQPPGKGLEWIGYIWSGGSTDYNPSLKSRVTISVDTSKNQVSLKLSSVTAADTAVYYCARRYGTSYPDYGDANGFDPWGPGTLVTVSS VL: DIVMTQSPDSLAVSLGERATINCKSSQSISSYLIWYQQKPGQPPKLLIYRASTLASGVPDRFSGSGSGTDFTLTISSLQAEDVAVYYCQQAYSSSNVDNTFGGGTKVEIK
5 | 0.00785 | 2/99 VH20/VL15 (antibody, V domains shown) VH: QSMQESGPGLVKPSQTLSLTCTVSGFSLSSYAMSWIRQHPGKGLEWIGYIWSGGSTDYAPSLKSRVTISVDTSKNQVSLKLSSVTAADTAVYYCARRYGTSYPDYGDANGFDPWGQGTLVTVSS VL: DIVMTQSPDSLAVSLGERATINCKSSQSISSYLIWYQQKPGQPPKLLIYRASTLASGVPDRFSGSGSGTDFTLTISSLQAEDVAVYYCQQAYSSSNVDNTFGGGTKVEIK
6 | 0.00603 | 2/99 VH15/VL15 (antibody, V domains shown) VH: QQLQESGPGLVKPSETLSLTCTVSGFSLSSYAMSWVRQPPGKGLEWIGYIWSGGSTDYNPSLKSRVTISVDTSKNQVSLKLSSVTAADTAVYYCARRYGTSYPDYGDANGFDPWGQGTLVTVSS VL: DIVMTQSPDSLAVSLGERATINCKSSQSISSYLIWYQQKPGQPPKLLIYRASTLASGVPDRFSGSGSGTDFTLTISSLQAEDVAVYYCQQAYSSSNVDNTFGGGTKVEIK
7 | 0.00711 | 2/99 VH13/VL15 (antibody, V domains shown) VH: QVQLQESGPGLVKPSETLSLTCTVSGFSLSSYAMSWIRQPPGKGLEWIGYIWSGGSTDYNPSLKSRVTISVDTSKNQVSLKLSSVTAADTAVYYCARRYGTSYPDYGDANGFDPWGQGTLVTVSS VL: DIVMTQSPDSLAVSLGERATINCKSSQSISSYLIWYQQKPGQPPKLLIYRASTLASGVPDRFSGSGSGTDFTLTISSLQAEDVAVYYCQQAYSSSNVDNTFGGGTKVEIK
8 | 0.00776 | 2/99 VH12/VL15 (antibody, V domains shown) VH: QVQLQESGPGLVKPSETLSLTCTVSGFSLSSYAMSWIRQPPGKGLEWIGYIWSGGSTDYNPSLKSRVTISVDTSKNQFSLKLSSVTAADTAVYYCARRYGTSYPDYGDANGFDPWGQGTLVTVSS VL: DIVMTQSPDSLAVSLGERATINCKSSQSISSYLIWYQQKPGQPPKLLIYRASTLASGVPDRFSGSGSGTDFTLTISSLQAEDVAVYYCQQAYSSSNVDNTFGGGTKVEIK

Continued, binder first:

Row | Binder | koff [s⁻¹]
9 | 2/99 VH2/VL15 (antibody, V domains shown) VH: EVQLVETGGGLIQPGGSLRLSCAASGFSLSSYAMSWVRQAPGKGLEWVGYIWSGGSTDYADSVKGRFTISRDNSKNTLYLQMNSLRAEDTAVYYCARRYGTSYPDYGDANGFDPWGQGTLVTVSS VL: DIVMTQSPDSLAVSLGERATINCKSSQSISSYLIWYQQKPGQPPKLLIYRASTLASGVPDRFSGSGSGTDFTLTISSLQAEDVAVYYCQQAYSSSNVDNTFGGGTKVEIK | 0.00638
10 | 2/99 VH7/VL15 (antibody, V domains shown) VH: QQLVETGGGLIQPGGSLRLSCAASGFSLSSYAMSWVRQAPGKGLEWIGYIWSGGSTDYASWAKGRFTISRDNSKNTLYLQMNSLRAEDTAVYYCARRYGTSYPDYGDANGFDPWGQGTLVTVSS VL: DIVMTQSPDSLAVSLGERATINCKSSQSISSYLIWYQQKPGQPPKLLIYRASTLASGVPDRFSGSGSGTDFTLTISSLQAEDVAVYYCQQAYSSSNVDNTFGGGTKVEIK | 0.00273
11 | 2/99 VH8/VL15 (antibody, V domains shown) VH: QQLVETGGGLIQPGGSLRLSCAASGFSLSSYAMSWVRQAPGKGLEWIGYIWSGGSTDYASWAKGRFTISKTSTTLYLQMNSLRAEDTAVYYCARRYGTSYPDYGDANGFDPWGQGTLVTVSS VL: DIVMTQSPDSLAVSLGERATINCKSSQSISSYLIWYQQKPGQPPKLLIYRASTLASGVPDRFSGSGSGTDFTLTISSLQAEDVAVYYCQQAYSSSNVDNTFGGGTKVEIK | 0.00181
12 | 2/99 VH9/VL15 (antibody, V domains shown) VH: QQLLESGGGLVQPGGSLRLSCAASGFTFSSYAMSWVRQAPGKGLEWVGYIWSGGSTDYADSVKGRFTISRDNSKNTLYLQMNSLRAEDTAVYYCAKRYGTSYPDYGDANGFDPWGQGTLVTVSS VL: DIVMTQSPDSLAVSLGERATINCKSSQSISSYLIWYQQKPGQPPKLLIYRASTLASGVPDRFSGSGSGTDFTLTISSLQAEDVAVYYCQQAYSSSNVDNTFGGGTKVEIK | 0.00739
13 | 2/99 VH11/VL15 (antibody, V domains shown) VH: QQLLESGGGLVQPGGSLRLSCAASGFSLSSYAMSWVRQAPGKGLEWVGYIWSGGSTDYADSVKGRFTISRDNSKNTLYLQMNSLRAEDTAVYYCARRYGTSYPDYGDANGFDPWGQGTLVTVSS VL: DIVMTQSPDSLAVSLGERATINCKSSQSISSYLIWYQQKPGQPPKLLIYRASTLASGVPDRFSGSGSGTDFTLTISSLQAEDVAVYYCQQAYSSSNVDNTFGGGTKVEIK | 0.00709
14 | 2/99 VH6/VL15 (antibody, V domains shown) VH: QQLVETGGGLIQPGGSLRLSCAASGFSLSSYAMSWVRQAPGKGLEWIGYIWSGGSTDYADSVKGRFTISRDNSKNTLYLQMNSLRAEDTAVYYCARRYGTSYPDYGDANGFDPWGQGTLVTVSS VL: DIVMTQSPDSLAVSLGERATINCKSSQSISSYLIWYQQKPGQPPKLLIYRASTLASGVPDRFSGSGSGTDFTLTISSLQAEDVAVYYCQQAYSSSNVDNTFGGGTKVEIK | 0.00421
15 | 2/99 VH5/VL15 (antibody, V domains shown) VH: QSMEETGGGLIQPGGSLRLSCAASGFSLSSYAMSWVRQAPGKGLEWVGYIWSGGSTDYADSVKGRFTISRDNSKNTLYLQMNSLRAEDTAVYYCARRYGTSYPDYGDANGFDPWGPGTLVTVSS VL: DIVMTQSPDSLAVSLGERATINCKSSQSISSYLIWYQQKPGQPPKLLIYRASTLASGVPDRFSGSGSGTDFTLTISSLQAEDVAVYYCQQAYSSSNVDNTFGGGTKVEIK | 0.00637
